In general, Kd refers to a measure of binding affinity in units of concentration.

Read-outs that look alike come from different tables or passages of the source. Bridge positions count the residues as written; N and C are the ends. Square brackets hold non-standard residues; d marks the D form. Ends that are not written are not given here. dCha = N[C@H](CC1CCCCC1)C(=O)O; Orn = NCCC[C@H](N)C(=O)O

Results on five molecules are retold here after PMC7749166 (Communications Biology, 2020).

In assay [1] the test system is C5aR. To be noted: cited from earlier work. The source says:
GPCRs represent the largest human membrane protein family, having overall more than 800 members, and constitute a “control panel” of the cell[27]. […] However, the peptidic nat ...

Assay [2] has as its system C5aR. To be noted: cited from earlier work. The source says: G-protein-coupled receptors (GPCRs) are a large family of versatile and dynamic cell surface receptors expressed in almost all tissue types. Upon ligand binding to highly conserved orthosteric binding sites, GPCR pass from a quiescent to an active state, initiating signal transduction. The conservation of orthosteric binding sites throughout the GPCR superfamily and a poor understanding of the mechanism underneath their activation cycle are two key factors currently hampering the development of specific drugs towards a specific sub-type in a GPCR family. […] We simultaneously recorded FD-based AFM height images and adhesion maps (Fig. 3b, c) and extracted FD curves located on C5aR having their native orientation (based on our height criterion) (Fig. 3d). Generally, force-probing methods such as FD-based AFM measure the strength of single bonds under an externally applied force. Described first by the Bell-Evans model, an external force stressing a bond reduces the activation-energy barri ...
The source holds these as a separate data set.

Assay [3] concerns the target T1, wild type C5a anaphylatoxin chemotactic receptor 1 (C5aR), reconstituted in DOPC/CHS liposomes (human, UniProt P21730 1-350, sulfonated tyrosine residues (Y11 and Y14)).
T1 construct: C5a anaphylatoxin chemotactic receptor 1 (C5aR), human; wild type; Receptors lie in both orientations in the bilayer; also called C5aR^WT; wtC5aR; source: HEK-293S GnTI- cells (BacMam), purified (Ni-NTA, anti-Flag M1 resin, SEC), reconstituted in DOPC/CHS liposomes; not shown: His8, C-terminal, kept
T1 sequence (looked up): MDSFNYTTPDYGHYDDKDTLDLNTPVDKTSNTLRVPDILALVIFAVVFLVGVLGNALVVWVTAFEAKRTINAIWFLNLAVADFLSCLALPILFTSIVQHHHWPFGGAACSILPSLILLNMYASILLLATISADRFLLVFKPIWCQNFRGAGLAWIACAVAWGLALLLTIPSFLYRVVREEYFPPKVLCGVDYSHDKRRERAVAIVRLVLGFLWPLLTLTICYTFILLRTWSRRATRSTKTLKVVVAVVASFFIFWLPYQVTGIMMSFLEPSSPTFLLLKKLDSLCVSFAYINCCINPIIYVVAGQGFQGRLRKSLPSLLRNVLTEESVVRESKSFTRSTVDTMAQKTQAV
Nature of the assay: AFM dynamic force spectroscopy (FV- and FD-based AFM, Friddle-Noy-de Yoreo fit); C5a tethered by its N-terminal His6-tag to a tris-NTA-Ni2+ PEG27 tip; C5aR (wild type, mutant, or wild type incubated with PMX53) in DOPC/CHS liposomes adsorbed on mica; imaging buffer 20 mM HEPES, 300 mM NaCl; ≈24 °C; Kd calculated from ΔGbu = kbT × ln(0.018 Kd). To be noted: both partners purified.

The target of assay [4] is T2, C5aRΔTyr mutant (Y11F and Y14F), reconstituted in DOPC/CHS liposomes (human, UniProt P21730 1-350, Y11F | Y14F).
T2 construct: C5a anaphylatoxin chemotactic receptor 1 (C5aR), human; lack of tyrosine sulfonation validated by western blot; The methods print the mutations as 'Y11F and F14F'; the results print Y11F and Y14F; also called C5aR∆Tyr; source: HEK-293S GnTI- cells (BacMam), purified, reconstituted in DOPC/CHS liposomes
T2 sequence (looked up): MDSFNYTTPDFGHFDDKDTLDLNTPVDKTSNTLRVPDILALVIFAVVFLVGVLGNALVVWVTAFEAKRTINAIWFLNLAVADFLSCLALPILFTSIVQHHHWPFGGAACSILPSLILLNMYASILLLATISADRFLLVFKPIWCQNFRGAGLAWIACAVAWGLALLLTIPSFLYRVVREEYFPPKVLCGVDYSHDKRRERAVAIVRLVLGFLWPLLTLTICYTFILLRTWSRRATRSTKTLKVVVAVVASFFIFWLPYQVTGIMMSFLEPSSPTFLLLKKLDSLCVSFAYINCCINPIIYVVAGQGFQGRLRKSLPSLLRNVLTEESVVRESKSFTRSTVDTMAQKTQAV
The description is as above. As to conditions: both partners purified.

Assay [5] addresses C5aR^WT incubated with PMX53 (effector site blocked) (human) (UniProt P21730). Described as above.
Assay [6] concerns the target T1, wild type C5a anaphylatoxin chemotactic …. The assay can be described thus: AFM dynamic force spectroscopy (FV- and FD-based AFM, Friddle-Noy-de Yoreo fit); PMX53-Gly3-Cys coupled by its Cys to a PEG27-maleimide tip; C5aR (wild type or mutant) in DOPC/CHS liposomes adsorbed on mica; imaging buffer 20 mM HEPES, 300 mM NaCl; ≈24 °C; Kd calculated from ΔGbu = kbT × ln(0.018 Kd). As to conditions: both partners purified.

As to `CCCCn1c(-c2ccccc2)nc(-c2ccccc2)c1CN(Cc1ccc2c(c1)OCO2)Cc1ccc2c(c1)OCO2` [NDT9513727], the antagonist action entry in assay [1] (recent structural studies) is “allosteric modulators with highly reversible action”.
On to “Ace-Phe-[{Orn}-Pro-{D-Cha}-Trp-Arg] (sidechain bridge or staple) [PMX53, cyclic antagonist peptide that mimics the C-terminal structure of the endogenous C5a ligand]”, for which the “affinity towards the effector site” value in assay [2] is on record as “nanomolar affinity”. Also, the antagonist action entry in assay [1] is on record as “potent orthosteric antagonist with insurmountable action”.
Turning to `Cc1ccc(NC(=O)[C@H]2CCCN(C(=O)c3c(C)cccc3F)[C@H]2c2ccc(NC3CCCC3)cc2)cc1C(F)(F)F` [avacopan], the antagonist action entry in assay [1] (recent structural studies) is on record as “allosteric modulators with highly reversible action”. Moreover, the therapeutic efficacy result in assay [1] (to advance into late-stage clinical trials) is recorded as “sufficient therapeutic efficacy”.

B1: complement C5a anaphylatoxin with N-terminal His6-tag (ligand, human, UniProt P01031 678-751, looked up)
chain: TLQKKIEEIAAKYKHSVVKKCCYDGACVNNDETCEQRAARISLGPRCIKAFTECCVVASQLRANISHKDMQLGR
notes: C5a anaphylatoxin, the 74-amino acid cut product of complement C5; numbers count on: C5a itself (R74 is its C-terminal residue); Tethered by its His6-tag to a tris-NTA-Ni2+ PEG27 AFM tip; C5a from R&D Systems is named only for the GTPgammaS assay; also called C5a ligand; endogenous C5a ligand; not shown: His6, N-terminal, kept
In the case of B1, the Kd in assay [3] is around 4.5 nM. Moreover, the dissociation constant Kd in assay [4] is around 20 mM. Moreover, in assay [5], the Kd is 800 mM, the equilibrium force Feq was 29 pN and the residence time τ0.5 was 0.2 ms.

B2: PMX53-Gly3-Cys (Cys-Gly3-Phe-[{Orn}Pro-{D-Cha}-Trp-Arg]) (peptide)
chain: CGGGF[Orn]P[dCha]WR
modifications: lactam 6-C; not fully specified; printed as Cys-Gly3-Phe-[{Orn}Pro-{D-Cha}-Trp-Arg]
Consider B2, for which the Kd in assay [6] was 4.7 nM.
